# Measurements from patent publication US7888090B2, “Mutants of O6-alkylguanine-DNA alkyltransferase” (Ecole Polytechnique Federale de Lausanne, priority 2004, dated 2011).
# Legend:
# [1] = BG-Cy3 activity assay (reaction rate of AGT mutants); format: biochemical
# Description: Reactivity against DNA-based substrates measured with a BG-Cy3 assay: BG-Cy3 is prepared by reacting the previously described O^6-(4-aminomethyl-benzyl)guanine (Keppler et al., NatureBiotechnol. 21:86-89, 2003) with the commercially available N-hydroxysuccinimide ester of Cy3, (Cy3-NHS, Amersham). The coupling reaction is performed at ambient temperature in N,N-dimethylformamide in the presence of 1 eq. of triethylamine. The BG-Cy3 conjugate is purified by reversed-phase HPLC on a C18-column by using linear gradients from 0.1% trifluoroacetic acid to acetonitrile. After solvent evaporation BG-Cy3 is dissolved in dimethyl sulfoxide and stored at −20° C. For measuring the reactivity with DNA-based substrates, a reaction mixture containing different concentrations (0 to 5 µM) of oligonucleotide SEQ ID NO:2 (modified in position 14), GST-AGT fusion protein at 0.2 µM and BG-Cy3 at […] in reaction buffer (50 mM HEPES, pH 7.2, 1 mM DTT, 200 mg/ml BSA) is incubated in microtiterplates. Fluorescence of the Cy3 derivative (excitation 519 nm, emission at 572 nm) is measured on a Spectramax Gemini plate reader (Molecular Devices).
# The amplified products are cloned in fusion to the g3 gene of filamentous phage in the vector pAK100 via SfiI restriction sites. The resulting gene libraries are used for phage display as described under Example 4. The mutants of the libraries are selected with 5 to 50 nM of BG-Bt for 10 min. Selected mutants are subcloned into pGEX using the primers SEQ ID NO:3 and SEQ ID NO:13. The reaction rate of mutant AGTs is determined as described in Example 6, Reactivity against DNA-based substrates (BG-Cy3 assay).
# For the activity assay purified GST fusion proteins were used for mutants marked with “p.” (prepared as described under Example 1); periplasmic extracts were used for mutants marked with “x.” (prepared as described under Example 2).
# [2] = Stability after reaction with BG-FL; format: physicochemical; details: over 7 days
# Description: Stability before reaction is determined for the mutant AGT or for a mutant AGT fusion protein by incubating purified samples in buffered aqueous solution for up to two weeks at 4° C. and up to six months at −20° C. At several time points, aliquots are taken and concentration of reactive AGT is estimated as described by Juillerat et al., Chem Biol 10:313-317, 2003. Stability for wild type AGT and the AGT mutant after reaction with a labelled substrate and after subsequent separation from unreacted substrate is determined by quantifying the concentration of the label in the soluble fraction over up to two weeks at 4° C. and up to three months at −20° C.
# Stability after reaction: The vector pBAD/H is A (Invitrogen) is modified by cloning synthetic oligonucleotides (SEQ ID NO:29 and SEQ ID NO:30) between the NcoI and HindIII sites to include a 12×His-tag and SbfI and AscI cloning sites. The gene of AGTM is amplified with primers SEQ ID NO:31 and SEQ ID NO:32 and cloned between the SbfI/AscI sites into this vector. Wild type AGT and mutant AGT (Lys125Ala, Ala127Thr, Arg128Ala, Asn157Gly, Ser159Glu) are amplified with primers SEQ ID NO:31 and SEQ ID NO:33 and cloned into this vector. Protein expression is carried out in E. coli strain Top 10. An exponentially growing culture is induced with 0.2% arabinose, and the expression is carried out for 16 hours at 28° C. The cells are lysed by adding buffer to 10 ml/g containing 0.5 M NaCl, 80 mM imidazole, 1% Triton, 250 µM PMSF, 1 mM […]-mercaptoethanol, 5 mg/ml lysozyme, 20 µg/ml DNase and stirring for 45 min. […]
# The AGT proteins at 10 µM) are quantitatively reacted with fluorescein-modified O^6-benzyl-guanine (substance 5 of Juillerat et al, Chem Biol 10:313-317, 2003, BG-FL, 20 µM) and purified over a size exclusion column (Econopac 10 DG, Bio-Rad) and incubated for 7 days. […] The fluorescence of the supernatant is measured with a Victor2 fluorescence plate reader (Perkin Elmer, excitation/emission at 485/535 nm).
# [3] = Reaction of two AGT variants in one sample with CPTG and BG-Bt; format: biochemical
# Description: FIG. 2: Western blot of the reaction of wild type hAGT (GST-hAGT fusion protein) and AGTM with the two substrates N^9-cyclopentyl-O^6-bromophenyl-guanine (CPTG) and biotinylated O^6-benzylguanine (BG-Bt, substance 3a of Juillerat et al. 2003) as described in Example 7. BG-Bt is present in all samples at 5 μM. Detection with neutravidin-peroxidase conjugate and luminescent peroxidase substrate detecting any AGT reacted with BG-Bt. Even under simultaneous incubation with identical concentrations of CPTG and BG-Bt only about 5% of GST-hAGT reacts with substrate BG-Bt.
# Within the experiment two tags with different size for the two AGT proteins are used: The His-tagged AGTM (˜20 kDa) and GST-hAGT (cloned and prepared as described in Example 1, but starting with the wild type hAGT gene, ˜48 kDa) are diluted to 0.2 μM and 1.2 μM final concentration, respectively, in reaction buffer containing 50 mM HEPES, 1 mM DTT, 200 mg/mL BSA (pH 7.3). The sample is incubated with a mixture of substrates N^9-cyclopentyl-O^6-bromophenyl-guanine (CPTG; 0, 5 and 10 μM final concentrations) and biotinylated O^6-benzylguanine (BG-Bt, 5 μM final concentration) for 30 minutes. The reaction is quenched by addition of SDS-Laemmli buffer and subjected to Western blotting analysis (Example 1). As the two AGT variants have different masses, the two proteins can be separated on an acrylamide gel and analyzed independently. […] At the same concentration (both substrates at 5 μM final concentration), 95% of GST-hAGT reacts with CPTG, versus only 5% of His-tagged AGTM.
molecule,measurement,setting,value
"Wild type hAGT: wild type human O^6-alkylguanine-DNA alkyltransferase (SEQ ID NO:1); GST-hAGT is its GST fusion (protein, listed as Homo sapiens) MDKDCEMKRTTLDSPLGKLELSGCEQGLHEIKLLGKGTSAADAVEVPAPAAVLGGPEPLMQCTAWLNAYFHQPEAIEEFPVPALHHPVFQQESFTRQVLWKLLKVVKFGEVISYQQLAALAGNPKAARAVGGAMRGNPVPILIPCHRVVCSSGAVGNYSGGLAVKEWLLAHEGHRLGKPGLGGSSGLAGAWLKGAGATSGSPPAGRN",kobs,[1]; BG-Cy3 activity assay,116 M⁻¹ s⁻¹
same,Relative reaction rate,"[1]; divided by value for wild type hAGT, purified GST fusion proteins (p.)",1
same,loss of soluble fluorescent protein,[2],about 60%
same,fraction of protein reacting with CPTG,"[3]; CPTG and BG-Bt both at 5 μM, 30 minutes",95%
same,fraction of protein reacting with BG-Bt,[3]; simultaneous incubation with identical concentrations of CPTG and BG-Bt,about 5%
